Assay [1] concerns plasma coagulation factors FXII, PK, HMWK, FXI, FIX, FX, FII, FI and FVII. As to the kind of experiment: Changes in plasma coagulation factors in mice by IB (FI by ELISA). Format: in vivo, mouse. The note with it: 6 h after i.p. treatment. (In general: An ELISA detects its analyte on a solid surface through an enzyme-linked reagent.)
Protocol: Animal studies. […] Male mice at 7-8 weeks of age were used, including wild type (WT) mice (C57BL/6), and mice deficient in FXII (C57BL/6-FXII^−/−) or FVII (C57BL/6-FVII^tTA/tTA). WT C57BL/6 mice were purchased from Taconic. C57BL/6-FXII^−/− mice and C57BL/6-FVII^tTA/tTA mice were bred in our own facility and genotyped. […] CCl4 was dissolved in corn oil, whereas all other substances were dissolved in PBS. The vehicle or the test substance was given to mice in 0.1 ml volume per 20 g body weight. Blood was collected from the mice at specific times by cardiac puncture at the time of sacrifice by carbon dioxide, and heart, liver and kidney were also collected from some of the mice. Blood was collected into K3 EDTA-containing tubes (Multivette 600 from Sarstedt), unless specified otherwise. All blood samples were promptly centrifuged to obtain plasma samples.
The plates were washed three times with phosphate buffered saline tween-20 (PBST) and the coated wells were blocked by incubation with 200 μl/well of 1% BSA in PBS for at least 2 h at RT. […] The plates were washed again with PBST, and each well was incubated with a goat anti-rabbit IgG-HRP conjugate (100 μl) for 1 h at RT. After yet another round of wash with PBST, each well was incubated with 100 μl of HRP substrate 3,3′,5,5′-tetramethylbenzedine (Cell Signaling, 7004). Upon adequate color development, 100 μl of stop solution (Cell Signaling, 7002) was added to each well, and absorbance at 450 nm was promptly recorded by a microtiter plate reader. Plasma FI concentration was determined using an assay kit (400-374-130050) from GenWay Biotech, following the manufacturer's instruction.
IB. Tissue samples were mixed with RIPA buffer (25 mM Tris-HCl, pH 7.6, 150 mM NaCl, 1% Nonidet P-40, 1% sodium deoxycholate, 0.1% SDS), supplemented with 2 mM phenylmethanesulfonyl fluoride, a proteinase inhibitor mix (Roche Applied Science) and phosphatase inhibitor Cocktail 2 (Sigma-Aldrich). Tissue samples were stroked in a Dounce homogenizer, and the homogenates were cleared by centrifugation at 12,000×g for 15 min at 4° C. Protein concentrations in all samples were measured by the BCA assay kit. Plasma samples were used without further processing (20 μl per sample). Each sample was mixed with 4× loading dye, heated for 5 min at 95° C. and then resolved by SDS-PAGE (8-12.5%). […] The proteins were transferred to polyvinylidene fluoride membrane, probed with specific antibodies and detected using the ECL Plus Kit (Amersham) or the SuperSignal West Pico Kit (Thermo Scientific).
Assay [2] deals with T1, FVII (Homo sapiens, UniProt P08709).
T1 construct: purchased Haematologic Technologies HCVII-0030
T1 sequence (P08709 61-466): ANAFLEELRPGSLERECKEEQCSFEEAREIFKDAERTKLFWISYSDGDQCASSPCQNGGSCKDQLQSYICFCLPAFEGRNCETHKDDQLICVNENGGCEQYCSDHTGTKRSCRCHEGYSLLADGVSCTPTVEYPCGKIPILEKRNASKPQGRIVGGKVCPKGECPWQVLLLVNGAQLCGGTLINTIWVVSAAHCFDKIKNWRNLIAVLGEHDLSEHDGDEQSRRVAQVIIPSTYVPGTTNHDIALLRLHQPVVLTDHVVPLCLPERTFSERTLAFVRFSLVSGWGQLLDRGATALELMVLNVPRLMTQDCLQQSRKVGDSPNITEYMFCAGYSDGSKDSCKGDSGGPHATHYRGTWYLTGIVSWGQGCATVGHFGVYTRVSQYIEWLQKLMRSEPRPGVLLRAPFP
As to the kind of experiment: hPEPD degradation by FVII with or without TF and/or FIIa. Type of assay: biochemical. The note with it: 24 h. How it is done: Measurement of in vitro degradation of hPEPD, mSRC and hAβ1-42. To determine whether a blood coagulation factor degrades hPEPD, hPEPD at 90 nM or lower concentrations (10 or 40 nM) was incubated with solvent, 100 nM FIIa, 100 nM FXa, 10 nM FVIIa with or without 10 nM TF, or 10 nM FVII with or without 10 nM TF and/or 100 nM FIIa in PBS in a total volume of 100 μl containing 5 mM CaCl2 for desired times at RT. […] To compare the hPEPD-degrading activities of different plasma samples, 9.2 pmol of hPEPD was incubated with 100 μl of plasma from WT mice or FVII^tTA/tTA mice at RT, with or without FIIa or FXa (10 pmol), and to maximize detection of any activity, all incubations lasted for 24 h. […] To measure remaining hPEPD, the incubated samples were cleared of potential fibrin clots by centrifugation and then analyzed by SDS-PAGE and silver staining (using the LC 6070 kit from Invitrogen), IB or measurement of hPEPD enzymatic activity. hPEPD enzymatic activity was measured using glycyl-proline as a substrate (as described in Zbucka et al., Folia Histochem Cytobiol 2007; 45 Suppl 1: S181-185). The precipitates from each incubated sample were washed with PBS twice and then resuspended in 2.5% SDS (20 μper sample); each solution was mixed with 10 μl loading dye and analyzed for hPEPD by IB, using pure hPEPD as a standard and factor FXIIIa as a binding control, respectively.

Assay [3] concerns plasma Aβ1-42. As to the kind of experiment: Plasma Aβ1-42 concentration in mice by ELISA. Type of assay: in vivo, mouse. To be noted: FXII−/− mice, CCl4 0.5 g/kg or hPEPD 4 mg/kg i.p., 24 h.
Protocol: Animal studies. All animal studies were performed in accordance with protocols approved by the Institutional Animal Care and Use Committee at Roswell Park Cancer Institute. Male mice at 7-8 weeks of age were used, including wild type (WT) mice (C57BL/6), and mice deficient in FXII (C57BL/6-FXII^−/−) or FVII (C57BL/6-FVII^tTA/tTA). WT C57BL/6 mice were purchased from Taconic. C57BL/6-FXII^−/− mice and C57BL/6-FVII^tTA/tTA mice were bred in our own facility and genotyped. […] CCl4 was dissolved in corn oil, whereas all other substances were dissolved in PBS. The vehicle or the test substance was given to mice in 0.1 ml volume per 20 g body weight. Blood was collected from the mice at specific times by cardiac puncture at the time of sacrifice by carbon dioxide, and heart, liver and kidney were also collected from some of the mice. Blood was collected into K3 EDTA-containing tubes (Multivette 600 from Sarstedt), unless specified otherwise. All blood samples were promptly centrifuged to obtain plasma samples.
Measurement of plasma levels of PEPD, SRC, Aβ1-42 and FI. […] The plates were washed three times with phosphate buffered saline tween-20 (PBST) and the coated wells were blocked by incubation with 200 μl/well of 1% BSA in PBS for at least 2 h at RT. After another round of wash with PBST, the plates were incubated with appropriately diluted Aβ1-42 standard, SRC standard or plasma samples (100 μl/well) for 2 h at RT. The plates were then washed with PBST and incubated with an anti-Aβ1-42 rabbit polyclonal antibody (sc-9129) or anti-SRC rabbit monoclonal antibody (2123) at 100 μl/well for 2 h at RT. The plates were washed again with PBST, and each well was incubated with a goat anti-rabbit IgG-HRP conjugate (100 μl) for 1 h at RT. After yet another round of wash with PBST, each well was incubated with 100 μl of HRP substrate 3,3′,5,5′-tetramethylbenzedine (Cell Signaling, 7004). Upon adequate color development, 100 μl of stop solution (Cell Signaling, 7002) was added to each well, and absorbance at 450 nm was promptly recorded by a microtiter plate reader.
For assay [4], the system named is ERBB1 and ERBB2. As to the kind of experiment: Tissue levels and phosphorylation of ERBB1 and ERBB2 by IB. Type of assay: in vivo, mouse. The note with it: CCl4 0.5 g/kg or hPEPD 4 mg/kg i.p., 24 h. How it is done: Animal studies. All animal studies were performed in accordance with protocols approved by the Institutional Animal Care and Use Committee at Roswell Park Cancer Institute. Male mice at 7-8 weeks of age were used, including wild type (WT) mice (C57BL/6), and mice deficient in FXII (C57BL/6-FXII^−/−) or FVII (C57BL/6-FVII^tTA/tTA). WT C57BL/6 mice were purchased from Taconic. C57BL/6-FXII^−/− mice and C57BL/6-FVII^tTA/tTA mice were bred in our own facility and genotyped. The breeders were kindly provided by Dr. Francis J. Castellino at University of Notre Dame. […] CCl4 was dissolved in corn oil, whereas all other substances were dissolved in PBS. The vehicle or the test substance was given to mice in 0.1 ml volume per 20 g body weight. Blood was collected from the mice at specific times by cardiac puncture at the time of sacrifice by carbon dioxide, and heart, liver and kidney were also collected from some of the mice. Blood was collected into K3 EDTA-containing tubes (Multivette 600 from Sarstedt), unless specified otherwise. All blood samples were promptly centrifuged to obtain plasma samples.
IB. […] Protein concentrations in all samples were measured by the BCA assay kit. […] The proteins were transferred to polyvinylidene fluoride membrane, probed with specific antibodies and detected using the ECL Plus Kit (Amersham) or the SuperSignal West Pico Kit (Thermo Scientific).

B1: hPEPD: recombinant human prolidase (PEPD), 6xHis tagged to the carboxy terminus (protein, UniProt P12955 2-493, looked up)
Xaa-Pro dipeptidase: AAATGPSFWLGNETLKVPLALFALNRQRLCERLRKNPAVQAGSIVVLQGGEETQRYCTDTGVLFRQESFFHWAFGVTEPGCYGVIDVDTGKSTLFVPRLPASHATWMGKIHSKEHFKEKYAVDDVQYVDEIASVLTSQKPSVLLTLRGVNTDSGSVCREASFDGISKFEVNNTILHPEIVECRVFKTDMELEVLRYTNKISSEAHREVMKAVKVGMKEYELESLFEHYCYSRGGMRHSSYTCICGSGENSAVLHYGHAGAPNDRTIQNGDMCLFDMGGEYYCFASDITCSFPANGKFTADQKAVYEAVLRSSRAVMGAMKPGVWWPDMHRLADRIHLEELAHMGILSGSVDAMVQAHLGAVFMPHGLGHFLGIDVHDVGGYPEGVERIDEPGLRSLRTARHLQPGMVLTVEPGIYFIDHLLDEALADPARASFLNREVLQRFRGFGGVRIEEDVVVTDSGIELLTCVPRTVEEIEACMAGCDKAFTPFSGPK
modifications: C-terminal 6xHis tag
notes: recombinant human prolidase (PEPD), 6xHis tagged to the carboxy terminus
As to B1, the “activation/cleavage of plasma coagulation factors” value was “no activation of HMWK, FXI, PK and FIX, but slight activation of FX, FII and FVII” in assay [1] (FXII−/− mice); “caused cleavage or activation of many coagulation factors” in assay [1] (WT mice). Also, the “hPEPD degradation by FVII with or without TF after adding FIIa” value in assay [2] (FIIa 100 nM) is “caused marked hPEPD degradation”. In assay [2] (FVII 10 nM, TF 10 nM), the “proteolysis of hPEPD by FVII with or without TF” value is given as “showed no proteolytic activity towards hPEPD”. Besides, in assay [3], the “average plasma level of mAβ1-42, increase” value is reported as “remained unchanged”. Besides, in assay [4], the “changes in ERBB1/ERBB2 tyrosine phosphorylation and receptor depletion in heart, kidney and liver, WT mice compared to FXII−/− mice” value is reported as “reduced changes in receptor tyrosine phosphorylation”.

Values taken from US20180188270A1, “DIAGNOSTIC TEST FOR ALZHEIMER'S DISEASE BASED ON IDENTIFICATION OF A PROTEOLYTIC PATHWAY” (Health Research, Inc., priority 2015, published 2018).
